These results are taken from PMC11306496.

What all share (test): co-IP; total rat hippocampal lysates with primary antibody and Protein A/G agarose, 4°C; buffer pH 7.4, 0.05 mol/L HEPES, 0.15 mol/L NaCl, 0.5% NP-40, 1% Triton X-100; non-immune IgG as control; slices untreated or treated with PMA (0.5 umol/L, 10 min) and/or AIP (1 umol/L)
For assay [1], the target named is Rab11 family-interacting protein 3 (rat (endogenous in hippocampus)).
The target of assay [2] is small GTPase Rab11 (rat (endogenous in hippocampus)) (UniProt P62494).
For assay [3], the target named is NMDA receptor subunit GluN1 (rat (endogenous in hippocampus)) (UniProt P35439).
For assay [4], the target named is myosin Va (rat (endogenous in hippocampus)) (UniProt Q9QYF3).
Sequence of myosin Va (rat (endogenous in hippocampus)) (Q9QYF3 whole entry): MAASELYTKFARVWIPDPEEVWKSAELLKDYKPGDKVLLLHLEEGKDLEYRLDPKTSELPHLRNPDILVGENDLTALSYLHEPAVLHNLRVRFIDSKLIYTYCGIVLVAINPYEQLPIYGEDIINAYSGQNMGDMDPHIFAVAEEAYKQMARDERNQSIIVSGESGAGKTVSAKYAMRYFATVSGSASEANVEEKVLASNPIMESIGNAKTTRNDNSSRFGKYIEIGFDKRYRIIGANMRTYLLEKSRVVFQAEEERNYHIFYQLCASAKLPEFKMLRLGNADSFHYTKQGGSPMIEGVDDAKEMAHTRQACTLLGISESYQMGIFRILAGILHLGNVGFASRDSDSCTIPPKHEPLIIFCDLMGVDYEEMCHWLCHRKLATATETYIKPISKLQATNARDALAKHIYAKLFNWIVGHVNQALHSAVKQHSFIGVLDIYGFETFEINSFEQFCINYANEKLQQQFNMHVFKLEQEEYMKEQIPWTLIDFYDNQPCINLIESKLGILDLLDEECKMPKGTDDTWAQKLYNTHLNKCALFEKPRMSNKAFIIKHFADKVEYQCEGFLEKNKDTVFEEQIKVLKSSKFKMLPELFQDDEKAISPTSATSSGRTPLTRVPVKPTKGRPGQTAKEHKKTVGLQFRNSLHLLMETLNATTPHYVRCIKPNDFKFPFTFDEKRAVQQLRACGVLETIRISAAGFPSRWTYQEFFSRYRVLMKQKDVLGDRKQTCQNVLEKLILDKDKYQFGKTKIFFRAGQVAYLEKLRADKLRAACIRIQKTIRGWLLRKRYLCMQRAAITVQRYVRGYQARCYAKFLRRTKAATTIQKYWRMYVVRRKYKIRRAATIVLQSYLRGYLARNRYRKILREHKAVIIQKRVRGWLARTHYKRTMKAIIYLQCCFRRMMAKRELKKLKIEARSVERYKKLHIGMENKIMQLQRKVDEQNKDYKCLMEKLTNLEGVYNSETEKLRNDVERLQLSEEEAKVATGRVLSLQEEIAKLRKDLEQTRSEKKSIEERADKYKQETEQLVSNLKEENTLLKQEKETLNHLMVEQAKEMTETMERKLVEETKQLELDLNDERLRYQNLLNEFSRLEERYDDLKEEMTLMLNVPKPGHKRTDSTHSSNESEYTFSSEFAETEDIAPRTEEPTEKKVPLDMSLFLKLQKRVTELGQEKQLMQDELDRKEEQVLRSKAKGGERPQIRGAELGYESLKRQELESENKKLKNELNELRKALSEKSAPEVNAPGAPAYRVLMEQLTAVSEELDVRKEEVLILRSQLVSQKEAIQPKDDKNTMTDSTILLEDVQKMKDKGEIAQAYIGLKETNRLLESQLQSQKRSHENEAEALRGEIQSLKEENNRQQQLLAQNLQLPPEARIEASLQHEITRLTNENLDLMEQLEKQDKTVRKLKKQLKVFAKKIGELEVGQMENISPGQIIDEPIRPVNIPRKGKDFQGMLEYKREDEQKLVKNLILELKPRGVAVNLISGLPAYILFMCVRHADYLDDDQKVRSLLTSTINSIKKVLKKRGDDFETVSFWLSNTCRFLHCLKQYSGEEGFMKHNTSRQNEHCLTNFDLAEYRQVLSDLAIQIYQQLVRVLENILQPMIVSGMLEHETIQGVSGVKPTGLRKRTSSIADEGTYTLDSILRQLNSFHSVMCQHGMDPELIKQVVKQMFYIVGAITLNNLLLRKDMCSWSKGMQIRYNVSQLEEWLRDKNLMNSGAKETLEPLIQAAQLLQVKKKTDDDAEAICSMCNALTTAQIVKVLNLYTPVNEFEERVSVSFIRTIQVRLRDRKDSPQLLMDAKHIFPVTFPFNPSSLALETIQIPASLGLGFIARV

Sequence of small GTPase Rab11 (rat (endogenous in hippocampus)) (P62494 whole entry): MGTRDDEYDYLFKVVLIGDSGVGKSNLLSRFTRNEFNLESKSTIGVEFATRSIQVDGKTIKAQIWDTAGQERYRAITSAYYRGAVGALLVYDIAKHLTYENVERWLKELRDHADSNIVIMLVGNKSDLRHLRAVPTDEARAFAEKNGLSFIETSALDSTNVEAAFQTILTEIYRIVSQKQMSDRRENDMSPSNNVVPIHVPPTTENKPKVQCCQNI
Sequence of small GTPase Rab11 (P62494 whole entry): as above
Sequence of NMDA receptor subunit GluN2A (Q00959 23-1464): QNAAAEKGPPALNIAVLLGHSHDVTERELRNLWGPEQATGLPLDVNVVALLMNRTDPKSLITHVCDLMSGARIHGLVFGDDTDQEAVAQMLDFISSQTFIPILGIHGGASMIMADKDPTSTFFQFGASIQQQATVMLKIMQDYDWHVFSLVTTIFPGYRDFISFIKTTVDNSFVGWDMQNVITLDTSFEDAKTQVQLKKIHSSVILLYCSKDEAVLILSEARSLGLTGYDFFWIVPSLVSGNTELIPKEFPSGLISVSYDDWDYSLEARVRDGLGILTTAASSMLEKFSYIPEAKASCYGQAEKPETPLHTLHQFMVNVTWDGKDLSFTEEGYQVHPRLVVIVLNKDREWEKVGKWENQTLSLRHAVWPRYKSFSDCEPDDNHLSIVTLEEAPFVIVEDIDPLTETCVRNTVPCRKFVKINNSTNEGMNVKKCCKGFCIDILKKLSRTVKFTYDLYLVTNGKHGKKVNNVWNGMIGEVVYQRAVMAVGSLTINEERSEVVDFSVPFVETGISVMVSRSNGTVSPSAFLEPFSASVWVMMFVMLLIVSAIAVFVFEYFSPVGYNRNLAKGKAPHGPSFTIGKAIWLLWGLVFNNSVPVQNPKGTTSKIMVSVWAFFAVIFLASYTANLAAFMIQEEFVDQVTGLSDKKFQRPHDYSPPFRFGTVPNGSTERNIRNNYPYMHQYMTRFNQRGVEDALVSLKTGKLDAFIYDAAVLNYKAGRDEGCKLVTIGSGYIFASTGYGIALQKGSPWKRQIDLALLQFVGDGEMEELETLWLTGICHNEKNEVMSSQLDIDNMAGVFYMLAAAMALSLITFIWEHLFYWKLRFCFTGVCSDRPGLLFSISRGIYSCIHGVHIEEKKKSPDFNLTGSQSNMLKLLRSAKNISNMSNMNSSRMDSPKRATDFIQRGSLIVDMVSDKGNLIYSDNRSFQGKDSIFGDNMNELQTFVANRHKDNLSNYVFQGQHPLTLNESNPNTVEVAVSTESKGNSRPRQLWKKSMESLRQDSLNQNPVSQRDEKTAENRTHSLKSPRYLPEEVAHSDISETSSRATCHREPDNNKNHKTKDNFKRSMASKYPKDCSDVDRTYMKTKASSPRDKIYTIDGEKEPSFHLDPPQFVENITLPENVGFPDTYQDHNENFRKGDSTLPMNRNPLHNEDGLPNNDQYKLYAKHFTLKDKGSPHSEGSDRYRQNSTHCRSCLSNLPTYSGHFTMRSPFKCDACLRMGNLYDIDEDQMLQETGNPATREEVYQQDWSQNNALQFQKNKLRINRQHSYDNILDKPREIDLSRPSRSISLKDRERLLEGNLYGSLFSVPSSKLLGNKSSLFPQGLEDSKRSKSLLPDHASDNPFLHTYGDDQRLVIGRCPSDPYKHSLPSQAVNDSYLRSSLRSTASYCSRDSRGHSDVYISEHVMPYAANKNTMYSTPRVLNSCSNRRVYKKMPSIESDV

In the case of “NMDA receptor subunit GluN1 (from UniProt P35439 19-938)”, the co-IP signal with PMA, normalised to control (IP with anti-FIP3) (fold of control) in assay [1] turned out to be 1.44. This substance registered a co-IP signal with PMA, normalised to control (IP with anti-Rab11) (fold of control) in assay [2] of 1.5.
In assay [1], “NMDA receptor subunit GluN2A (from UniProt Q00959 23-1464)” registered a co-IP signal with PMA, normalised to control (IP with anti-FIP3) (fold of control) of 1.45. The substance also registered a co-IP signal with PMA, normalised to control (IP with anti-Rab11) (fold of control) in assay [2] of 1.39.
Turning to “Rab11 family-interacting protein 3 (natural protein)”, the co-IP signal with PMA, normalised to control (IP with anti-GluN1) (fold of control) in assay [3] amounted to 1.37.
For “myosin Va (from UniProt Q9QYF3 1-1828) (natural protein)”, in assay [1], the co-IP signal with PMA, normalised to control (IP with anti-FIP3) (fold of control) was found to be 1.33. The substance further gave a co-IP signal with PMA, normalised to control (IP with anti-Rab11) (fold of control) in assay [2] of 1.33.
In assay [4], “small GTPase Rab11 (from UniProt P62494 1-216) (natural protein)” registered a co-IP signal with PMA, normalised to control (IP with anti-MyoVa) (fold of control) of 1.31. This substance gave a co-IP signal with PMA, normalised to control (IP with anti-GluN1) (fold of control) in assay [3] of 1.53. In assay [1], this substance had a co-IP signal with PMA, normalised to control (IP with anti-FIP3) (fold of control) of 1.38.
